Experimental data: patent US20060286611A1, “Antibodies against biotinylated histones and related proteins and assays related thereto” (Board of Regents of University of Nebraska, priority 2005, published 2006)
Non-standard residues stand in square brackets, D forms with d. No end group written: not given here. *: point of attachment. Me2 = dimethyl-lysine (dimethyl-epsilon-NH2-L-lysine); pS = N[C@@H](COP(=O)(O)O)C(=O)O; Orn = NCCC[C@H](N)C(=O)O; For = O=C*

What follows are molecules tested against T1, biotinidase (Homo sapiens, UniProt P43251) (assay: Enzymatic biotinylation of synthetic histone H2A and H2A.X peptides by biotinidase). Settings: human plasma as source of biotinidase, 75 μmol/L biocytin, pH 8.0, 37° C., up to 45 minutes.
T1 construct: 60 μL of human plasma; from tissue; host or cells: human plasma
T1 sequence (P43251 22-523): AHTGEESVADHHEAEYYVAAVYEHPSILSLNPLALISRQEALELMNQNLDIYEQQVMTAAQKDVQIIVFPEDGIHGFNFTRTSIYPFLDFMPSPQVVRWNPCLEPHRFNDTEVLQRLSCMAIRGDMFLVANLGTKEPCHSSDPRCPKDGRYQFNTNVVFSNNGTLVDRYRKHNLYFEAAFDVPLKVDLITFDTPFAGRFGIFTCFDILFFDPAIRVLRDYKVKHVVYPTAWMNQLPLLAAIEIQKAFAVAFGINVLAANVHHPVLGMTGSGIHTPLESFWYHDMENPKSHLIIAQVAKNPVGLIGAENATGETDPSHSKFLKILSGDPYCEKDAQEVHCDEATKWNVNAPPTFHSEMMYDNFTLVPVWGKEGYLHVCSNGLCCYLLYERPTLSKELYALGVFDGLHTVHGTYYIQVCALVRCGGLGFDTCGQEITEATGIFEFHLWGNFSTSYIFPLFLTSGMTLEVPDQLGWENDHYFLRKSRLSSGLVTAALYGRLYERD
Type: biochemical
Text: In Examples described above, the inventors developed a procedure to identify amino acid residues in histones that are targets for biotinylation. […] Amino acid substitutions (e.g., lysine-to-alanine substitutions) in synthetic peptides are used to corroborate identification of biotinylation sites. In addition, amino acid modifications (e.g., acetylation of lysines) in peptides can be used to investigate the cross-talk between biotinylation of histones and other known modifications of histones.
Peptides from both the N- and C-terminal regions of histone H2A and H2A.X were included in the analysis of biotinylation sites. […] Reactions were quenched by adding an equal volume of Tricine gel loading buffer (Invitrogen, Carlsbad, Calif.).
In the case of NC(=O)NCCC[C@H](N)C(=O)O [citrulline], the “enzymatic biotinylation by biotinidase, peptide-bound biotin probed with streptavidin peroxidase” value was “good targets for biotinylation”.

The molecules below were run against T1, biotinidase (assay: Enzymatic biotinylation of synthetic histone H3 peptides by biotinidase). Settings: biotinidase and biocytin, 45 min.
Type: biochemical
NC(=O)NCCC[C@H](N)C(=O)O [citrulline] was tested, and the “enzymatic biotinylation by biotinidase, peptide-bound biotin probed with streptavidin-peroxidase” value was “relatively poor target for biotinylation”. “K18A16-23: histone H3 amino acids 16 to 23, K18 substituted with alanine (PRAQLATK) [Peptide K18A16-23]” was tested, and the “enzymatic biotinylation by biotinidase, peptide-bound biotin probed with streptavidin-peroxidase” value was “weak”. With “K18A18-25: histone H3 amino acids 18-25, K18 substituted with alanine (AQLATKAA) [Peptide K18A18-25]” the “enzymatic biotinylation by biotinidase, peptide-bound biotin probed with streptavidin-peroxidase” value was “barely detectable”. For “K23A16-23: histone H3 amino acids 16 to 23, K23 substituted with alanine (PRKQLATA) [Peptide K23A16-23]”, the “enzymatic biotinylation by biotinidase, peptide-bound biotin probed with streptavidin-peroxidase” value was “weak”. “K23A18-25: histone H3 amino acids 18-25, K23 substituted with alanine (KQLATAAA) [Peptide K23A18-25]” was tested, and the “enzymatic biotinylation by biotinidase, peptide-bound biotin probed with streptavidin-peroxidase” value was “heavily biotinylated”. For “N9-16: histone H3 amino acids 9-16, including K9 and K14 (KSTGGKAP; UniProt P68431 10-17, looked up, fragment) [Peptide N9-16]”, the “enzymatic biotinylation by biotinidase, peptide-bound biotin probed with streptavidin-peroxidase” value was “relatively poor targets for biotinylation”. With “N16-23: histone H3 amino acids 16-23, including K18 and K23 (PRKQLATK; UniProt P68431 17-24, looked up, fragment) [Peptide N16-23]” the “enzymatic biotinylation by biotinidase, peptide-bound biotin probed with streptavidin-peroxidase” value was “moderate target for biotinylation”. “N18-25: histone H3 amino acids 18-25, including K18 and K23 (RKQLATKA; listed as Homo sapiens) [Peptide N18-25]” was tested, and the “enzymatic biotinylation by biotinidase, peptide-bound biotin probed with streptavidin-peroxidase” value was “better substrate for biotinylation”. For “TAAKSTGG [Peptide R8A6-13, histone H3 6-13, R8 substituted with alanine]”, the “enzymatic biotinylation by biotinidase, peptide-bound biotin probed with streptavidin-peroxidase” value was “increased considerably”. For “TAOKSTGG (TA[Orn]KSTGG) [Peptide R8O6-13]”, the “enzymatic biotinylation by biotinidase, peptide-bound biotin probed with streptavidin-peroxidase” value was “increased considerably”. With “TARASTGG [Peptide K9A6-13, histone H3 6-13, K9 substituted with alanine]” the “enzymatic biotinylation by biotinidase, peptide-bound biotin probed with streptavidin-peroxidase” value was “no biotinylation was observed”. In the case of “TARKS(p)TGG (TARK[pS]TGG) [S10S(p)6-13, histone H3 6-13, phosphorylation of S10]”, the “enzymatic biotinylation by biotinidase, peptide-bound biotin probed with streptavidin-peroxidase” value was “poor target for biotinylation”. With “TARKSTGG [Peptide N6-13, native unmodified peptide, position 6-13 in histone H3]” the “enzymatic biotinylation by biotinidase, peptide-bound biotin probed with streptavidin-peroxidase” value was “moderate target for biotinylation”.

What follows are molecules tested against T1, biotinidase (assay: Enzymatic biotinylation of synthetic histone H4 peptides by biotinidase). Settings: human plasma as source of biotinidase, biocytin, 37° C., 45 min.
Type: biochemical
Text: It has been proposed that the following catalytic sequence leads to biotinylation in histones (Hymes et al., 1995; Hyme and Wolf, 1999). First, biocytin is cleaved by biotinidase to form an intermediate, cysteine-bound biotin. Second, the biotinyl moiety from the cysteine residue is transferred to the ε-amino group of lysines in histones. In the present study, synthetic peptides were biotinylated enzymatically using human plasma (as source of biotinidase) and biocytin (as source of biotin) as described previously (Hymes et al., 1995). Peptide concentrations in stock solutions were adjusted to 50 mg/L; 20 μL of peptide solution was mixed with 1.88 mL of 50 mmol/L Tris (pH 8.0), 40 μL of 0.75 mmol/L biocytin and 60 μL of human plasma. Samples were incubated […] at 37° C. for 45 min and stored at −70° C. unless stated otherwise.
After enzymatic biotinylation, peptides were electrophoresed using 16% tricine polyacrylamide gels according to the manufacturer's instructions (Invitrogen, Carlsbad, Calif.). Peptides were electroblotted onto polyvinylidene fluoride membranes (Millipore, Bedford, Mass.), which were blocked with 50 mL of 30 g/L BSA. Peptide-bound biotin was probed with streptavidin peroxidase (Stanley et al., 2001).
With “2: histone H4 positions 6-15, alanine in position 8 (Ac-GGAGLGKGGA) [Peptide 2]” the “enzymatic biotinylation by biotinidase, peptide-bound biotin probed with streptavidin peroxidase” value was “decreased substantially”. With “3: histone H4 positions 6-15, alanine in position 12 (Ac-GGKGLGAGGA) [Peptide 3]” the “enzymatic biotinylation by biotinidase, peptide-bound biotin probed with streptavidin peroxidase” value was “decreased substantially”. For “4: histone H4 positions 6-15, alanine in positions 8 and 12 (Ac-GGAGLGAGGA) [Peptide 4]”, the “enzymatic biotinylation by biotinidase, peptide-bound biotin probed with streptavidin peroxidase” value was “did not undergo biotinylation”. “5: histone H4 positions 6-15, Ac-K in position 8 (Ac-GGK(Ac)GLGKGGA) [Peptide 5]” was tested, and the “enzymatic biotinylation by biotinidase, peptide-bound biotin probed with streptavidin peroxidase” value was “barely detectable”. In the case of “6: histone H4 positions 6-15, Ac-K in position 12 (Ac-GGKGLGK(Ac)GGA) [Peptide 6]”, the “enzymatic biotinylation by biotinidase, peptide-bound biotin probed with streptavidin peroxidase” value was “decreased biotinylation of the peptide”. For “7: histone H4 positions 6-15, Dme-K in position 8 (Ac-GGK(Me2)GLGKGGA) [Peptide 7]”, the “enzymatic biotinylation by biotinidase, peptide-bound biotin probed with streptavidin peroxidase” value was “decreased substantially”. “8: histone H4 positions 6-15, Dme-K in position 12 (Ac-GGKGLGK(Me2)GGA) [Peptide 8]” was tested, and the “enzymatic biotinylation by biotinidase, peptide-bound biotin probed with streptavidin peroxidase” value was “decreased substantially”. For “9: histone H4 positions 6-15, For-K in position 12 (Ac-GGKGLGK(For)GGA) [Peptide 9]”, the “enzymatic biotinylation by biotinidase, peptide-bound biotin probed with streptavidin peroxidase” value was “decreased compared to the native peptide”. In the case of “12: histone H4 positions 6-15, arginine in position 8 (Ac-GGRGLGKGGA) [Peptide 12]”, the “enzymatic biotinylation by biotinidase, peptide-bound biotin probed with streptavidin peroxidase” value was “decreased substantially”. “13: histone H4 positions 6-15, arginine in position 12 (Ac-GGKGLGRGGA) [Peptide 13]” was tested, and the “enzymatic biotinylation by biotinidase, peptide-bound biotin probed with streptavidin peroxidase” value was “decreased moderately”. “14: histone H4 positions 6-15, arginine in positions 8 and 12 (Ac-GGRGLGRGGA) [Peptide 14]” was tested, and the “enzymatic biotinylation by biotinidase, peptide-bound biotin probed with streptavidin peroxidase” value was “not detected”. With “15: histone H4 positions 6-15, glutamate in position 8 [Peptide 15]” the “enzymatic biotinylation by biotinidase, peptide-bound biotin probed with streptavidin peroxidase” value was “not detectable”. “16: histone H4 positions 6-15, glutamate in position 12 [Peptide 16]” was tested, and the “enzymatic biotinylation by biotinidase, peptide-bound biotin probed with streptavidin peroxidase” value was “not detectable”. With “17: histone H4 positions 6-15, glutamine in position 8 (Ac-GGQGLGKGGA) [Peptide 17]” the “enzymatic biotinylation by biotinidase, peptide-bound biotin probed with streptavidin peroxidase” value was “decreased compared to the native peptide”. With “18: histone H4 positions 6-15, glutamine in position 12 (Ac-GGKGLGQGGA) [Peptide 18]” the “enzymatic biotinylation by biotinidase, peptide-bound biotin probed with streptavidin peroxidase” value was “decreased compared to the native peptide”. In the case of “19: histone H4 positions 6-15, glutamine in positions 8 and 12 (Ac-GGQGLGQGGA) [Peptide 19]”, the “enzymatic biotinylation by biotinidase, peptide-bound biotin probed with streptavidin peroxidase” value was “no enzymatic biotinylation was detectable”. In the case of “20: histone H4 positions 6-15, D-lysine in position 12 (Ac-GGKGLG[dK]GGA) [Peptide 20]”, the “enzymatic biotinylation by biotinidase, peptide-bound biotin probed with streptavidin peroxidase” value was “decreased only moderately”. For “GGKGLGKGGA (Ac-GGKGLGKGGA) [Peptide 1, amino acids 6 through 15 in histone H4, native control]”, the “enzymatic biotinylation by biotinidase, peptide-bound biotin probed with streptavidin peroxidase” value was “efficiently biotinylated”.

Same assay, conditions: incubated with plasma and biocytin for 0 to 60 min
With “SGRGKGGKGLGKGGAKRHR [SEQ ID NO:7, N-terminal 19 amino acids of histone H4]” the “time at which abundance of biotinylated peptide reached a plateau” value was 20 to 60 min.
